Test results taken from publication PMC11699742.

Biological target: α-Synuclein (UniProt P37840)

Chain of DnaK from E. coli (P0A6Y8 whole entry): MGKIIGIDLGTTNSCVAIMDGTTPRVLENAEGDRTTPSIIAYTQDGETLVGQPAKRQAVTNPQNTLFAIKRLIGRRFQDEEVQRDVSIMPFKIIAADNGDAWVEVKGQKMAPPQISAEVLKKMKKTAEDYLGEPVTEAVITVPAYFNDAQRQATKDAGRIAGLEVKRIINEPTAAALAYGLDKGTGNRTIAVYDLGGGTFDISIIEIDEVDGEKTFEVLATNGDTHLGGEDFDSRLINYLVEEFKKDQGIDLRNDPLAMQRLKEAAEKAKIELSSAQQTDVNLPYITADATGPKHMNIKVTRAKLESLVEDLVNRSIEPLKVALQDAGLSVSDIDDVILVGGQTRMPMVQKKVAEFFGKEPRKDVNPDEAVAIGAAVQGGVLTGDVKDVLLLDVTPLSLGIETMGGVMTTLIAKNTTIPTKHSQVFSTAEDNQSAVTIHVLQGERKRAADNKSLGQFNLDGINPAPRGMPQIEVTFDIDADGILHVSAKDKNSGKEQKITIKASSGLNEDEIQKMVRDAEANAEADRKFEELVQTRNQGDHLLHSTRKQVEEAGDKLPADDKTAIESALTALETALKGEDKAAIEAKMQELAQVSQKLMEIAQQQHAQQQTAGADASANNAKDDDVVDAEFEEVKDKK

ThT fibrillation of 50 µM α-Syn monomer with 0.5 µM DnaK, with 2 mM ATP: relative decrease in vmax (1.32 h^-1 to 0.49 h^-1) and end signal (176,900–53,000): 64% | ThT fibrillation of 50 µM α-Syn monomer with 0.5 µM DnaK, without ATP: relative decrease in vmax (0.99 h^-1 to 0.55 h^-1) and end signal (43,000-24,600): 45%
Substance: DnaK from E. coli (from UniProt P0A6Y8 1-638) (natural protein)
